Experiment [1] deals with T1, GPC3 (UniProt P51654 25-554). Kind of experiment: flow cytometry; HepG2 cells.
The target of experiment [2] is T1, GPC3. Kind of experiment: flow cytometry; HepG2 cells. This is another data set of the same source.

Where two headings read alike, the source gives them in different places.

B1: Codrituzumab (antibody, V domains shown)
VH: QVQLVQSGAEVKKPGASVKVSCKASGYTFTDYEMHWVRQAPGQGLEWMGALDPKTGDTAYSQKFKGRVTLTADKSTSTAYMELSSLTSEDTAVYYCTRFYSYTYWGQGTLVTVSS
VL: DVVMTQSPLSLPVTPGEPASISCRSSQSLVHSNRNTYLHWYLQKPGQSPQLLIYKVSNRFSGVPDRFSGSGSGTDFTLKISRVEAEDVGVYYCSQNTHVPPTFGQGTKLEIKR
Consider B1, for which the 50% effective concentration (EC50) with GPC3 [1] and with GPC3 [2] was 0.529 nM in each case.

Source of the values: patent US20250134962A1 (published 2025).
